Measurements: patent US20250000946A1 (WUXI BIOLOGICS IRELAND, published 2025)
Positions count from the first letter of the chain named. Names and notes keep the numbering of the source. Like-named read-outs stand apart in the source and are kept apart here.

What was measured:
[1] = target: T1, Human IL-2Rβ/γ (intermediate affinity IL-2 receptor) (human, UniProt P14784 27-551; P31785 23-369); assay: FACS, HH cells
T1 construct: whole, on cells; also called IL-2Rβ/γc; IL-2Rβ (CD122) and γ (CD132)
T1 sequence (looked up) 1: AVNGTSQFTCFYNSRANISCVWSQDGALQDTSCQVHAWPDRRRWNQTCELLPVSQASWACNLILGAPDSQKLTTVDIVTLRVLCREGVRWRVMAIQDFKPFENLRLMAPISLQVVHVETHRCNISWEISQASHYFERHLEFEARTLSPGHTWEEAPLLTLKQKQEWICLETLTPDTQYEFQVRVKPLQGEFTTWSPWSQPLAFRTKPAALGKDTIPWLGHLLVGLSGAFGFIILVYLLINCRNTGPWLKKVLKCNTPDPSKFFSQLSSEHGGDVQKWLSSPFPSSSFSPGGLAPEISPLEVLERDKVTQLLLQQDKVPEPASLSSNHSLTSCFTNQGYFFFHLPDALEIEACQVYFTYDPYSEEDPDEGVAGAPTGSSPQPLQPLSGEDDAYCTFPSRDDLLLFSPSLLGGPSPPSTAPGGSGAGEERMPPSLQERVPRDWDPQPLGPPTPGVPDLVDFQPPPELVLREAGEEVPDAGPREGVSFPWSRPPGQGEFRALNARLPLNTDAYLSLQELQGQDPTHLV
T1 sequence (looked up) 2: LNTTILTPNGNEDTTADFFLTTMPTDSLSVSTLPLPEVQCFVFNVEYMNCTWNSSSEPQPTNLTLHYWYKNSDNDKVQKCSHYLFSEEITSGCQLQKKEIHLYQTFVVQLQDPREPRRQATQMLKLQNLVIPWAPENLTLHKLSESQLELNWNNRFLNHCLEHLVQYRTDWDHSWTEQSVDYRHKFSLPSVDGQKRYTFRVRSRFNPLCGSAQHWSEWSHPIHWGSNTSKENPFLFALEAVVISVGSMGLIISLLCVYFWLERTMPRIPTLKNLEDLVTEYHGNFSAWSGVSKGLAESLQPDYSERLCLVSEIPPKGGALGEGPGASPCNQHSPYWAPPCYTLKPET
Experimental: (§1) Human cutaneous T cell lymphoma HH cells, malignant non-Hodgkin's lymphoma NK92 cells and cutaneous T cell lymphoma MJ20 cells were used for binding assay. They both constitutively express IL-2Rβ (CD122) and […] (CD132), and NK92 and MJ20 also expresses IL-2Rα (CD25). HH, NK92 and MJ20 cells were cultured following ATCC guidance, then transferred to a 96-plate for binding analysis. Cells were incubated with IL-2/Fc fusion proteins at the indicated concentrations for 30 min at 4° C. to avoid internalization. Binding was detected by 2nd antibody of PE-anti-human Fc at 4° C. for another 30 min. The median fluorescence intensity (MFI) on HH and NK92 cells was measured using FACS.

[2] = target: T2, Human IL-2Rα/β/γ complex (high affinity IL-2 receptor) (human, UniProt P01589 22-272; P14784 27-551; P31785 23-369); assay: FACS, NK92 cells
T2 construct: whole, on cells
T2 sequence (looked up) 1: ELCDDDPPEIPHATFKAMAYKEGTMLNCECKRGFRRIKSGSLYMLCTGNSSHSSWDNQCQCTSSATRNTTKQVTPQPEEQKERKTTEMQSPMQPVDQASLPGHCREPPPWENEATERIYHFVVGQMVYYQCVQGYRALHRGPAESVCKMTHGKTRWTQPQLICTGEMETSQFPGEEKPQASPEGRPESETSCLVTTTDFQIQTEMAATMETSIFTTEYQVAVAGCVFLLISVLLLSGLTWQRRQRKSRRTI
T2 sequence (looked up) 2: T1 sequence (looked up) 1
T2 sequence (looked up) 3: T1 sequence (looked up) 2
Outline: (§2)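 HH (IL-2Rβ/γ), MJ20 and NK92 (IL-2Rα/β/γ) cells incubated with IL-2/Fc fusion proteins at indicated concentrations, 30 min at 4° C to avoid internalization. Bound protein detected with PE-anti-human Fc, 30 min at 4° C; median fluorescence intensity read by FACS.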

[3] = target: T1, Human IL-2Rβ/γ (intermediate affinity …); assay: cell-based or functional assay
[4] = target: T2, Human IL-2Rα/β/γ complex (high affinity …); assay: cell-based or functional assay
[5] = target: T1, Human IL-2Rβ/γ (intermediate affinity …); assay: FACS, HH cells; EC50 fold vs T2U0.E44-1
Experimental: as §1

[6] = target: T2, Human IL-2Rα/β/γ complex (high affinity …); assay: FACS, NK92 cells; EC50 fold vs T2U0.E44-1
Outline: as §2

[7] = target: T1, Human IL-2Rβ/γ (intermediate affinity …); assay: FACS, HH cells; remark: listed apart in the source
Outline: as §2

[8] = target: T2, Human IL-2Rα/β/γ complex (high affinity …); assay: FACS, MJ20 cells
Experimental: as §1

[9] = target: T1, Human IL-2Rβ/γ (intermediate affinity …); assay: cell-based or functional assay; remark: listed apart in the source
[10] = target: T2, Human IL-2Rα/β/γ complex (high affinity …); assay: cell-based or functional assay; remark: listed apart in the source
[11] = target: T1, Human IL-2Rβ/γ (intermediate affinity …); assay: FACS, HH cells; EC50 fold vs T2U0.E44-1; remark: listed apart in the source
Outline: as §2

[12] = target: T2, Human IL-2Rα/β/γ complex (high affinity …); assay: FACS, MJ20 cells; EC50 fold vs T2U0.E44-1
Experimental: as §1

B1: W3XX115-T2U0.E44-15.uIgG4V1 (Fc fusion)
chain: APTSSSTKKTQLQLEHLLLDLQMILNGINNYKNPKLTRMLTVKFYMPKKATELKHLQCLEEELKPLEEVLNLAQSKNFHLRPRDLISNINVIVLELKGSETTFMCEYADETATIVEFLNRWITFCQSIIESKYGPPCPPCPAPEFLGGPSVFLFPPKPKDTLMISRTPEVTCVVVDVSQEDPEVQFNWYVDGVEVHNAKTKPREEQFNSTYRVVSVLTVLHQDWLNGKEYKCKVSNKGLPSSIEKTISKAKGQPREPQVYTLPPCQEEMTKNQVSLWCLVKGFYPSDIAVEWESNGQPENNYKTTPPVLDSDGSFFLYSRLTVDKSRWQEGNVFSCSVMHEALHNHYTQKSLSLSLG
heavy: EIQLQQSGPELVKPGASVKVSCKASGYSFTDYNMYWVKQSHGESLEWIGYIDPYNGGTRYNQKFKGKATLTVDKSSSTAFMHLNSLTSEDSAVYYCARNGHWDGAWFAYWGQGTLVTVSAASTKGPSVFPLAPCSRSTSESTAALGCLVKDYFPEPVTVSWNSGALTSGVHTFPAVLQSSGLYSLSSVVTVPSSSLGTKTYTCNVDHKPSNTKVDKRVESKYGPPCPPCPAPEFLGGPSVFLFPPKPKDTLMISRTPEVTCVVVDVSQEDPEVQFNWYVDGVEVHNAKTKPREEQFNSTYRVVSVLTVLHQDWLNGKEYKCKVSNKGLPSSIEKTISKAKGQPREPQVCTLPPSQEEMTKNQVSLSCAVKGFYPSDIAVEWESNGQPENNYKTTPPVLDSDGSFFLVSRLTVDKSRWQEGNVFSCSVMHEALHNHYTQKSLSLSLG
light: DIQMNQSPSSLSASLGDTITITCHASQNINVWLSWYQQKPGNIPKLLIYKASNLHTGVPSRFSGSRSGTGFTLTISSLQPEDIATYYCHQGQSYPFTFGSGTKLEIKRTVAAPSVFIFPPSDEQLKSGTASVVCLLNNFYPREAKVQWKVDNALQSGNSQESVTEQDSKDSTYSLSSTLTLSKADYEKHKVYACEVTHQGLSSPVTKSFNRGEC
notes: IL-2 del STLT and F42V; E44 format, IgG4
[1]
  EC50: ~470 nM
[2]
  EC50: 2740 nM
[3]
  Human CD8+ T Potency EC50 (STAT5 phosphorylation): 312 nM
  Human CD8+ T Potency reduction: 30.3 fold
[4]
  Human Treg Potency EC50 (STAT5 phosphorylation): 54.9 nM
  Human Treg Potency reduction: 4620 fold
[5]
  Affinity reduction: 18.8 fold
[6]
  Affinity reduction: 91.6 fold

B2: W3XX115-T2U0.E44-39.uIgG4V322 (Fc fusion)
chain: B1 chain with V42F, I128A, F145A, L146A
heavy: B1 heavy with F234A, L235A
light: B1 light
notes: IL-2 del STLT and I128A; E44 format, IgG4 FALA
[7]
  EC50: 355 nM
[8]
  EC50: 74200 nM
[9]
  Potency in human CD8+ T EC50: 99.9 nM
  Potency reduction (CD8+ T): 9.8 fold
[10]
  Potency in human Treg EC50: 2 nM
  Potency reduction (Treg): 1020 fold
[11]
  Affinity reduction: 6.8 fold
[12]
  Affinity reduction: 1770 fold

B3: W3XX115-T2U0.E44-35.uIgG4V322 (Fc fusion)
chain: B1 chain with V42F, S127T, F145A, L146A
heavy: B1 heavy with F234A, L235A
light: B1 light
notes: IL-2 del STLT and S127T; E44 format, IgG4 FALA
[7]
  EC50: 576 nM
[8]
  EC50: 92.8 nM
[9]
  Potency in human CD8+ T EC50: 10.7 nM
  Potency reduction (CD8+ T): 1.1 fold
[10]
  Potency in human Treg EC50: 0.073 nM
  Potency reduction (Treg): 37.1 fold
[11]
  Affinity reduction: 10.9 fold
[12]
  Affinity reduction: 2.2 fold

B4: W3XX115-T2U0.E44-20.uIgG4V1 (Fc fusion)
chain: B1 chain with R38W, V42F
heavy: B1 heavy
light: B1 light
notes: IL-2 del STLT and R38W; E44 format, IgG4
[1]
  EC50: 336 nM
[2]
  EC50: 232 nM
[3]
  Human CD8+ T Potency EC50 (STAT5 phosphorylation): 323 nM
  Human CD8+ T Potency reduction: 31.4 fold
[4]
  Human Treg Potency EC50 (STAT5 phosphorylation): 2.06 nM
  Human Treg Potency reduction: 173 fold
[5]
  Affinity reduction: 13.5 fold
[6]
  Affinity reduction: 33.1 fold

B5: W3XX115-T2U0.E44-34.uIgG4V322 (Fc fusion)
chain: B1 chain with V42F, S127A, F145A, L146A
heavy: B1 heavy with F234A, L235A
light: B1 light
notes: IL-2 del STLT and S127A; E44 format, IgG4 FALA
[7]
  EC50: 720 nM
[8]
  EC50: 60.9 nM
[9]
  Potency in human CD8+ T EC50: 180 nM
  Potency reduction (CD8+ T): 17.7 fold
[10]
  Potency in human Treg EC50: 0.21 nM
  Potency reduction (Treg): 104 fold
[11]
  Affinity reduction: 13.7 fold
[12]
  Affinity reduction: 1.5 fold

B6: W3XX115-T2U0.E44-19.uIgG4V1 (Fc fusion)
chain: B1 chain with V42M
heavy: B1 heavy
light: B1 light
notes: IL-2 del STLT and F42M; E44 format, IgG4
[1]
  EC50: 398 nM
[2]
  EC50: 522 nM
[3]
  Human CD8+ T Potency EC50 (STAT5 phosphorylation): 185 nM
  Human CD8+ T Potency reduction: 18 fold
[4]
  Human Treg Potency EC50 (STAT5 phosphorylation): 0.53 nM
  Human Treg Potency reduction: 44.5 fold
[5]
  Affinity reduction: 15.9 fold
[6]
  Affinity reduction: 74.6 fold

B7: W3XX115-T2U0.E44-36.uIgG4V322 (Fc fusion)
chain: B1 chain with V42F, S127D, F145A, L146A
heavy: B1 heavy with F234A, L235A
light: B1 light
notes: IL-2 del STLT and S127D; E44 format, IgG4 FALA
[7]
  EC50: 1320 nM
[8]
  EC50: 98.5 nM
[9]
  Potency in human CD8+ T EC50: ~12.2 nM
[10]
  Potency in human Treg EC50: 0.1 nM
  Potency reduction (Treg): 52.2 fold
[11]
  Affinity reduction: 25.1 fold
[12]
  Affinity reduction: 2.4 fold

B8: W3XX115-T2U0.E44-16.uIgG4V1 (Fc fusion)
chain: B1 chain with V42I
heavy: B1 heavy
light: B1 light
notes: IL-2 del STLT and F42I; E44 format, IgG4
[1]
  EC50: 472 nM
[2]
  EC50: ~310 nM
[3]
  Human CD8+ T Potency EC50 (STAT5 phosphorylation): 251 nM
  Human CD8+ T Potency reduction: 24.4 fold
[4]
  Human Treg Potency EC50 (STAT5 phosphorylation): 31.2 nM
  Human Treg Potency reduction: 2620 fold
[5]
  Affinity reduction: 18.9 fold
[6]
  Affinity reduction: 44.3 fold
